Experimental findings from paper PMC6050581 (ACS infectious diseases, 2018) are described below.

A word on the Kd: it is a measure of binding affinity in units of concentration. The low end stands for tighter binding, the high end for weaker binding.

The labels stand for the following.
B1: W2S4 peptide (human CD11a-based) (peptide)
peptide: Ac-YLSGLCYLFRQNLQGPML-NH2
B2: leukotoxin (LtxA) of Aggregatibacter actinomycetemcomitans (natural protein)
chain: MATTTLPNTKQQAAQFANSVADRAKENIDAAKEQLQKALDKLGKTGKKLTLYIPKNYKKGNGLTALIKAAQKLGIEVYHEGKDGPALTNGILNTGKKLLGLTERGLTLFAPELDKWIQGNKHLSNSVGSTGNLTKAIDKVQSVLGTLQAFLNTAFSGMDLDALIKARQNGKNVTDVQLAKASLNLINELIGTISSITNNVDTFSKQLNKLGEALGQVKHFGSFGDKLKNLPKLGNLGKGLGALSGVLSAISAALLLANKDADTATKAAAAAELTNKVLGNIGKAITQYLIAQRAAAGLSTTGPVAGLIASVVSLAISPLSFLGIAKQFDRARMLEEYSKRFKKFGYNGDSLLGQFYKNTGIADAAITTINTVLSAIAAGVGAASAGSLVGAPIGLLVSAITSLISGILDASKQAVFEHIANQLADKIKAWENKYGKNYFENGYDARHSAFLEDSLKLFNELREKYKTENILSITQQGWDQRIGELAGITRNGDRIQSGKAYVDYLKKGEELAKHSDKFTKQILDPIKGNIDLSGIKGSTTLTFLNPLLTAGKEERKTRQSGKYEFITELKVKGRTDWKVKGVPNSNGVYDFSNLIQHAVTRDNKVLEARLIANLGAKDDYVFVGSGSTIVNAGDGYDVVDYSKGRTGALTIDGRNATKAGQYKVERDLSGTQVLQETVSKQETKRGKVTDLLEYRNYKLDYYYTNKGFKAHDELNSVEEIIGSTLRDKFYGSKFNDVFHGHDGDDLIYGYDGDDRLYGDNGNDEIHGGQGNDKLYGGAGNDRLFGEYGNNYLDGGEGDDHLEGGNGSDILRGGSGNDKLFGNQGDDLLDGGEGDDQLAGGEGNDIYVYRKEYGHHTITEHSGDKDKLSLANINLKDVSFERNGNDLLLKTNNRTAVTFKGWFSKPNSSAGLDEYQRKLLEYAPEKDRARLKRQFELQRGKVDKSLNNKVEEIIGKDGERITSQDIDNLFDKSGNKKTISPQELAGLIKNKGKSSSLMSSSRSSSMLTQKSGLSNDISRIISATSGFGSSGKALSASPLQTNNNFNSYANSLATTA

In experiment [1] the target is B2. Briefly: SPR.
Experiment [2] deals with B1. Briefly: SPR. For orientation: Surface plasmon resonance follows binding to a sensor surface in real time, without labels.

Consider Ac-LSRTCDQNT-NH2 [W2S3 peptide (human CD11a-based; identical in murine CD11a)], for which, in experiment [1], the Kd is ~10 nM. Still for that read-out and setting: as for Ac-TGHCLP-NH2 [W1S4 peptide (human CD11a-based)], the figure is ~10 nM. Still for that read-out and setting: as for Ac-VTLRGSNYTSKYLGMTLATDP-NH2 [W2S1 peptide (human CD11a-based)], the figure is ~10 nM. For the molecule B1, in experiment [1], the dissociation constant Kd was ~10 nM. Still for that read-out and setting: as for Ac-TDGSILACDPG-NH2 [W2S2 peptide (human CD11a-based)], the figure is ~10 nM. Turning to B2, in experiment [2], the “KD relative to the KD of LtxA for the other peptides” value was ~2 fold.
